Measured values from patent US20230272011A1 (AVACTA LIFE SCIENCES, published 2023).
Residue numbers refer to the chain shown, from its start. Names may count otherwise.

B1: HSA-41 D89A (designed binder)
chain: MIPRGLSEAKPATPEIQEIVDKVKPQLEEKTNETYGKLEAVQYKTQVLANFFQRRWPGSTNYYIKVRAGDNKYMHLKVFNGPWKFRNTARGADRVLTGYQVDKNKDDELTGFHHHHHH
B2: HSA-41 R86A (designed binder)
chain: B1 chain with R86A, A89D
B3: HSA-41 T88A (designed binder)
chain: B1 chain with T88A, A89D
B4: HSA-41 Q53A (designed binder)
chain: B1 chain with Q53A, A89D
B5: HSA-41 N87A (designed binder)
chain: B1 chain with N87A, A89D
B6: HSA-41 P57A (designed binder)
chain: B1 chain with P57A, A89D
B7: HSA-41 F85A (designed binder)
chain: B1 chain with F85A, A89D
B8: HSA-41 G58A (designed binder)
chain: B1 chain with G58A, A89D
B9: HSA-41 G91A (designed binder)
chain: B1 chain with A89D, G91A
B10: HSA-41 R54A (designed binder)
chain: B1 chain with R54A, A89D
B11: HSA-41 R90A (designed binder)
chain: B1 chain with A89D, R90A
B12: HSA-41 K84A (designed binder)
chain: B1 chain with K84A, A89D
B13: HSA-41 N50A (designed binder)
chain: B1 chain with N50A, A89D
B14: HSA-41 DI (designed binder)
chain: MIPRGLSEAKPATPEIQEIVDKVKPQLEEKTNETYGKLEAVQYKTQVLANFFQRRWPGSTNYYIKVRAGDNKYMHLKVFNGPWKFRNTDRGADRVLTGYQVDKNKDDELTGFGGGGSGGGGSGGGGSGGGGSGGGGSGGGGSMIPRGLSEAKPATPEIQEIVDKVKPQLEEKTNETYGKLEAVQYKTQVLANFFQRRWPGSTNYYIKVRAGDNKYMHLKVFNGPWKFRNTDRGADRVLTGYQVDKNKDDELTGFHHHHHH
notes: also called ILF homodimer with flexible linker; ILF dimer HSA-41 DI
B15: HSA-41 BK (designed binder)
chain: MIPRGLSEAKPATPEIQEIVDKVKPQLEEKTNETYGKLEAVQYKTQVLANFFQRRWPGSTNYYIKVRAGDNKYMHLKVFNGPWKFRNTDRGADRVLTGYQVDKNKDDELTGFAEAAAKEAAAKEAAAKEAAAKEAAAKEAAAKMIPRGLSEAKPATPEIQEIVDKVKPQLEEKTNETYGKLEAVQYKTQVLANFFQRRWPGSTNYYIKVRAGDNKYMHLKVFNGPWKFRNTDRGADRVLTGYQVDKNKDDELTGFHHHHHH
notes: also called ILF homodimer with rigid linker
B16: AVA04-236 XT7 (designed binder)
chain: MIPRGLSEAKPATPEIQEIVDKVKPQLEEKTNETYGKLEAVQYKTQVLAKEHGPDSWWSTNYYIKVRAGDNKYMHLKVFNGPQEKNQWVEEADRVLTGYQVDKNKDDELTGFGGGGSGGGGSGGGGSGGGGSGGGGSGGGGSMIPRGLSEAKPATPEIQEIVDKVKPQLEEKTNETYGKLEAVQYKTQVLANFFQRRWPGSTNYYIKVRAGDNKYMHLKVFNGPWKFRNTDRGADRVLTGYQVDKNKDDELTGFHHHHHH
B17: AVA04-269 XT11 (designed binder)
chain: MIPRGLSEAKPATPEIQEIVDKVKPQLEEKTNETYGKLEAVQYKTQVLAKEYGPEEWWSTNYYIKVRAGDNKYMHLKVFNGPGDYEQVLIHADRVLTGYQVDKNKDDELTGFGGGGSGGGGSGGGGSGGGGSGGGGSGGGGSMIPRGLSEAKPATPEIQEIVDKVKPQLEEKTNETYGKLEAVQYKTQVLANFFQRRWPGSTNYYIKVRAGDNKYMHLKVFNGPWKFRNTDRGADRVLTGYQVDKNKDDELTGFHHHHHH
B18: AVA04-261 XT10 (designed binder)
chain: MIPRGLSEAKPATPEIQEIVDKVKPQLEEKTNETYGKLEAVQYKTQVLAHAYGPRDWDSTNYYIKVRAGDNKYMHLKVFNGPPADHVLEEAADRVLTGYQVDKNKDDELTGFAEAAAKEAAAKEAAAKEAAAKEAAAKEAAAKMIPRGLSEAKPATPEIQEIVDKVKPQLEEKTNETYGKLEAVQYKTQVLANFFQRRWPGSTNYYIKVRAGDNKYMHLKVFNGPWKFRNTDRGADRVLTGYQVDKNKDDELTGFHHHHHH
B19: AVA04-236 XT8 (designed binder)
chain: MIPRGLSEAKPATPEIQEIVDKVKPQLEEKTNETYGKLEAVQYKTQVLAKEHGPDSWWSTNYYIKVRAGDNKYMHLKVFNGPQEKNQWVEEADRVLTGYQVDKNKDDELTGFAEAAAKEAAAKEAAAKEAAAKEAAAKEAAAKMIPRGLSEAKPATPEIQEIVDKVKPQLEEKTNETYGKLEAVQYKTQVLANFFQRRWPGSTNYYIKVRAGDNKYMHLKVFNGPWKFRNTDRGADRVLTGYQVDKNKDDELTGFHHHHHH
B20: AVA04-269 XT12 (designed binder)
chain: MIPRGLSEAKPATPEIQEIVDKVKPQLEEKTNETYGKLEAVQYKTQVLAKEYGPEEWWSTNYYIKVRAGDNKYMHLKVFNGPGDYEQVLIHADRVLTGYQVDKNKDDELTGFAEAAAKEAAAKEAAAKEAAAKEAAAKEAAAKMIPRGLSEAKPATPEIQEIVDKVKPQLEEKTNETYGKLEAVQYKTQVLANFFQRRWPGSTNYYIKVRAGDNKYMHLKVFNGPWKFRNTDRGADRVLTGYQVDKNKDDELTGFHHHHHH
B21: AVA04-261 XT9 (designed binder)
chain: MIPRGLSEAKPATPEIQEIVDKVKPQLEEKTNETYGKLEAVQYKTQVLAHAYGPRDWDSTNYYIKVRAGDNKYMHLKVFNGPPADHVLEEAADRVLTGYQVDKNKDDELTGFGGGGSGGGGSGGGGSGGGGSGGGGSGGGGSMIPRGLSEAKPATPEIQEIVDKVKPQLEEKTNETYGKLEAVQYKTQVLANFFQRRWPGSTNYYIKVRAGDNKYMHLKVFNGPWKFRNTDRGADRVLTGYQVDKNKDDELTGFHHHHHH
B22: AVA04-236 (designed binder)
chain: MIPRGLSEAKPATPEIQEIVDKVKPQLEEKTNETYGKLEAVQYKTQVLAKEHGPDSWWSTNYYIKVRAGDNKYMHLKVFNGPQEKNQWVEEADRVLTGYQVDKNKDDELTGF
B23: AVA04-269 (designed binder)
chain: MIPRGLSEAKPATPEIQEIVDKVKPQLEEKTNETYGKLEAVQYKTQVLAKEYGPEEWWSTNYYIKVRAGDNKYMHLKVFNGPGDYEQVLIHADRVLTGYQVDKNKDDELTGF
B24: AVA04-261 (designed binder)
chain: MIPRGLSEAKPATPEIQEIVDKVKPQLEEKTNETYGKLEAVQYKTQVLAHAYGPRDWDSTNYYIKVRAGDNKYMHLKVFNGPPADHVLEEAADRVLTGYQVDKNKDDELTGF

Each binder was assayed against T1, human serum albumin (human, UniProt P02768 25-609) (assay: SPR (Biacore) binding response to HSA at pH 7.4, Affimer at 50 nM).
T1 construct: mature; Bought protein; biotinylated in the Octet and HTRF assays; also called HSA; HuSA
Text: Final clones were sequence-verified, produced from E. coli, and affinity purified as described in Example 3.
In the case of B1, the “binding response” value is reported as 26.1.
With B2 the “binding response” value was 19.1.
With B3 the “binding response” value was 27.9.
For B4, the “binding response” value was 23.5.
For B5, the “binding response” value was 25.8.
For B6, the “binding response” value was 23.2.
In the case of B7, the “binding response” value is reported as 26.6.
B8 was tested, and the “binding response” value was 6.5.
B9 was tested, and the “binding response” value was 17.8.
For B10, the “binding response” value was 11.9.
In the case of B11, the “binding response” value is reported as 17.2.
In the case of B12, the “binding response” value is reported as 23.5.
For B13, the “binding response” value was 13.

Each binder was assayed against T1, human serum albumin (assay: Biacore, immobilised HSA, pH 7.4).
Description: Affinities for mouse, human, and cynomolgus serum were also measured at pH 7.4 for four (4) AFFIMER® binders using surface plasmon resonance (SPR) (FIG. 5, Table 5). […] A concentration titration of AFFIMER® monomers was run as analyte at a flow rate of 30 μl/min or 60 μl/min. Fc2-1, Fc3-1 and Fc4-1 kinetic data was blank subtracted and fit to a 1:1 Langmuir binding model (BIAcore Evalution software; GE) to calculate KD values.
The AFFIMER® polypeptides were produced and purified from E. coli as described in Example 3.
Work on B14 yielded a Kd of 0.201 nM, a koff of 0.000959 s⁻¹ and a kon of 4.77e+06 M⁻¹ s⁻¹.
For B15, the Kd was 0.128 nM, the koff was 0.000994 s⁻¹ and the kon was 7.74e+06 M⁻¹ s⁻¹.

These binders were tested against T1, human serum albumin (assay: SPR (Biacore), immobilised HSA, Affimer analyte).
In the case of B16, the Kd is reported as 13.3 nM, the koff is reported as 0.00336 s⁻¹ and the kon is reported as 253000 M⁻¹ s⁻¹.
Binder B17 has a Kd of 15.5 nM, a koff of 0.00234 s⁻¹ and a kon of 151000 M⁻¹ s⁻¹.
Binder B18 has a Kd of 9.7 nM, a koff of 0.00291 s⁻¹ and a kon of 299000 M⁻¹ s⁻¹.
B19 gave a Kd of 9.5 nM, a koff of 0.00252 s⁻¹ and a kon of 267000 M⁻¹ s⁻¹.
Binder B20 has a Kd of 12.9 nM, a koff of 0.00228 s⁻¹ and a kon of 177000 M⁻¹ s⁻¹.
Binder B21 has a Kd of 13.3 nM, a koff of 0.00357 s⁻¹ and a kon of 269000 M⁻¹ s⁻¹.

Each binder was assayed against T2, human PD-L1-Fc (R&D Systems) chimeric protein (human, UniProt Q9NZQ7 19-239) (assay: SPR (Biacore T200), PD-L1-Fc amine-coupled to CM5, Affimer analyte).
T2 construct: Bought reagent; also called rhPD-L1-Fc; huPD-L1; Fc part of the bought chimera not given, not described
T2 sequence (Q9NZQ7 19-239, change not shown): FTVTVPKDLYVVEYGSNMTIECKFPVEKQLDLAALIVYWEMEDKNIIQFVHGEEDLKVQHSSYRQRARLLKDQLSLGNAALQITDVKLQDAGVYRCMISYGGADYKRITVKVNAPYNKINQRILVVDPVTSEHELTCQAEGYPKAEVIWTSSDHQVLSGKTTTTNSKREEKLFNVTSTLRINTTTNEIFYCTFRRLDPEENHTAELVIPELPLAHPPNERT
Description: (§1) ILF dimer production from E. coli was performed as described in Example 3. Briefly, protein was purified using three stages: affinity capture, IEX, and preparative SEC. […] To analyze PD-L1-Fc binding kinetics, a Biacore T200 kinetic analysis was performed using running buffer HBS-EP+ and series S sensor CM5 (GE Healthcare) chip Fc2 immobilized with PD-L1-Fc (R&D Systems) in 10 mM sodium acetate pH 4.0 using amine coupling reagents (GE Healthcare). The concentration titration of ILF AFFIMER® polypeptides was run as analyte at a flow rate of 30 μl/min. […] with 3 mM NaOH (GE healthcare) for 20 seconds at 20 μl/min flow rate. The Fc2-1 data blank was subtracted and fit to a 1:1 Langmuir binding model (Biacore evaluation software; GE) to calculate an apparent KD value.
B16 was tested, and the koff was 0.00763 s⁻¹ and the kon was 1.57e+06 M⁻¹ s⁻¹.
B17 was tested, and the koff was 0.00354 s⁻¹ and the kon was 796000 M⁻¹ s⁻¹.
B22 was tested, and the koff was 0.00977 s⁻¹ and the kon was 1.8e+06 M⁻¹ s⁻¹.
B23 was tested, and the koff was 0.00345 s⁻¹ and the kon was 2.05e+06 M⁻¹ s⁻¹.
For B18, the koff was 0.00826 s⁻¹ and the kon was 875000 M⁻¹ s⁻¹.
In the case of B19, the koff is reported as 0.00695 s⁻¹ and the kon is reported as 1.52e+06 M⁻¹ s⁻¹.
B20 gave a koff of 0.00431 s⁻¹ and a kon of 1.14e+06 M⁻¹ s⁻¹.
B21 showed a koff of 0.00707 s⁻¹ and a kon of 395000 M⁻¹ s⁻¹.
B24 gave a koff of 0.0109 s⁻¹ and a kon of 3.68e+06 M⁻¹ s⁻¹.

What follows are binders tested against T2, human PD-L1-Fc (R&D Systems) chimeric … (assay: SPR (Biacore T200), PD-L1-Fc amine-coupled to CM5, Affimer analyte; apparent KD).
Description: as §1
B16 was tested, and the Kd was 4.86 nM.
B17 showed a Kd of 4.45 nM.
Binder B22 has a Kd of 5.43 nM.
Work on B23 yielded a Kd of 1.68 nM.
B18 gave a Kd of 9.44 nM.
Work on B19 yielded a Kd of 4.57 nM.
With B20 the Kd was 3.8 nM.
Work on B21 yielded a Kd of 17.9 nM.
With B24 the Kd was 2.95 nM.
